Data on 7 molecules can be found in paper doi:10.1101/2022.04.29.489987 (bioRxiv, 2022).

Test [1] addresses TRIB2-Nb4.103 complex (human) (UniProt Q92519). Briefly: ITC. In general terms: Isothermal titration calorimetry measures the heat released or taken up as one component is titrated into another.
Test [2] concerns the target T1, TRIB2(53–343) (human, UniProt Q92519 53-343).
T1 sequence (looked up): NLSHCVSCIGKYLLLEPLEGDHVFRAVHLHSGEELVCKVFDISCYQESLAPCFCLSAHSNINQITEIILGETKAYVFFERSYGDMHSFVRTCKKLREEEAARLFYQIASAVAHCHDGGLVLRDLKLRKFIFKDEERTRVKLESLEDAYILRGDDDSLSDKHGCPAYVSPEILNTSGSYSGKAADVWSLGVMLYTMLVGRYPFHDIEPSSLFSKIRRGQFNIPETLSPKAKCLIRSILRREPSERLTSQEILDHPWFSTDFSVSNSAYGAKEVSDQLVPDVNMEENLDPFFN
Briefly: ITC.

The target of another test is T2, TRIB2(2–343) (human, UniProt Q92519 2-343).
T2 sequence (looked up): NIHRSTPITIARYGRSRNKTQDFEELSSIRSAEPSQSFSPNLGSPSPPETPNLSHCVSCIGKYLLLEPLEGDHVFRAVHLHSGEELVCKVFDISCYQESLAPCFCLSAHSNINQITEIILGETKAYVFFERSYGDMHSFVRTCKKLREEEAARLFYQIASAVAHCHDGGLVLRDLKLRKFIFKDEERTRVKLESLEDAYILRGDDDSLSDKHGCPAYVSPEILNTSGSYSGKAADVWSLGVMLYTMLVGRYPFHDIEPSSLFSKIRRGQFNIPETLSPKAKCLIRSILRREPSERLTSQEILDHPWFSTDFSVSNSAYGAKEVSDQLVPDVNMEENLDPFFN
The test can be described thus: ELISA. (In general: An ELISA detects its analyte on a solid surface through an enzyme-linked reagent.)

The target in test [3] is T1, TRIB2(53–343). Briefly: SEC-SAXS. In general terms: Size exclusion chromatography separates by hydrodynamic size, large species first.
Test [4] addresses T1, TRIB2(53–343). The test can be described thus: SEC-SAXS. The source holds these as a separate data set.

One may read the Kd as the concentration at which binding is half-saturated. Lower therefore signals tighter binding. As for “MBP-C/EBPa (from UniProt P49715 1-358) (domain or fragment)”, in test [1], the fold decrease in affinity against TRIB2 alone stood at 3 fold. In the test with TRIB2(53–343) [2], the Kd amounted to 9000 nM.

B1: biotinylated Nb4.101 (Nb-Avi) (VHH)
VHH: QVQLQESGGGLVQAGGSLRLSCAASGNISDYLYMGWYRQAPGKERELVAGISYGANTYYADSVKGRFTISRDNAKNTVYLQMNSLKPEDTAVYYCAVFDASRTPILTYWGQGTQVTVSS
modifications: biotin on the Avi-tag
In the case of B1, the binding result with TRIB2(2–343) is listed as “binds”.

B2: Nb4.101 (VHH)
VHH: QVQLQESGGGLVQAGGSLRLSCAASGNISDYLYMGWYRQAPGKERELVAGISYGANTYYADSVKGRFTISRDNAKNTVYLQMNSLKPEDTAVYYCAVFDASRTPILTYWGQGTQVTVSS
For orientation: stoichiometry N means a count of units in the complex or per binding partner. With B2, the Kd with TRIB2(53–343) [2] came out at 57 nM. The “stoichiometry N” value with TRIB2(53–343) [2] is roughly 0.5; with TRIB2(53–343) [3], 1 TRIB2 per nanobody.

B3: Nb4.105 (VHH)
VHH: QVQLQESGGGLVQAGGSLRLSCAASGNIFDNDPMGWYRQAPGKERELVAAIAYGATTYYADSVKGRFTISRDNAKNTVYLQMNSLKPEDTAVYYCAAYGIDDSPKVYSLRYWGQGTQVTVSS
Consider B3, for which, in the test with TRIB2(53–343) [2], binding was put at a Kd of 54 nM and the “stoichiometry N” value came to 1.

B4: biotinylated Nb4.105 (Nb-Avi) (VHH)
VHH: QVQLQESGGGLVQAGGSLRLSCAASGNIFDNDPMGWYRQAPGKERELVAAIAYGATTYYADSVKGRFTISRDNAKNTVYLQMNSLKPEDTAVYYCAAYGIDDSPKVYSLRYWGQGTQVTVSS
modifications: biotin on the Avi-tag
Consider B4, for which the binding result with TRIB2(2–343) is “binds”.

B5: Nb4.103 (VHH)
VHH: QVQLQESGGGLVQAGGSLRLSCAASGNISAQAYMGWYRQAPGKERELVAGISYGATTYYADSVKGRFTISRDNAKNTVYLQMNSLKPEDTAVYYCAVISAGGGESIGYHFYWGQGTQVTVSS
Regarding B5, the entries for the “stoichiometry N” value in the test with TRIB2(53–343) [4] and with TRIB2(53–343) [2] were 2 TRIB2 per nanobody and roughly 0.5, respectively. This molecule yielded a dissociation constant (Kd) with TRIB2(53–343) [2] of 27 nM.

B6: biotinylated Nb4.103 (Nb-Avi) (VHH)
VHH: QVQLQESGGGLVQAGGSLRLSCAASGNISAQAYMGWYRQAPGKERELVAGISYGATTYYADSVKGRFTISRDNAKNTVYLQMNSLKPEDTAVYYCAVISAGGGESIGYHFYWGQGTQVTVSS
modifications: biotin on the Avi-tag
Take B6: the binding result with TRIB2(2–343) was “binds”.
